In the supplement of paper PMC12042874 one finds amyloid nucleation score data, which are given here for 140 substances.

± gives the uncertainty stated by the source.

The data set is described as follows: amyloid nucleation score (Sup35N fusion, yeast selection) (log enrichment); library NNK2; higher = more nucleation; inactive = no reads after selection. An outline of the steps:
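Sup35N was fused to peptides of 20 random codons and expressed in psi-negative yeast, which were induced with 100 μM copper sulfate for 24 hours and then grown on medium lacking adenine and uracil for 7 days at 30°C. Plasmid inserts from input and output were sequenced on Illumina. The nucleation score is the DiMSum log enrichment of output over input reads, centred on the mode score of non-aggregating sequences. Sequences with under 100 input reads were left out, and random libraries had three technical output replicates.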
Take FSRMPLMDESFWFTCSICVM: the amyloid nucleation score was determined as 2.64 ± 0.068.
Then RMIPCLLRFGTYLFF, with -0.509 ± 1.1; and CIDRFHTVPLAVHSVCGILL, with -0.319 ± 0.76.
For HRVWRVAFVQVRSFIY the value was -0.038 ± 1.
For WWVPCSLYWYSAEGPGLARA the value was 0.007 ± 0.31; for HVYLSLEDQGILNSTECMQH, -0.393 ± 1.1; for RQVANWAVVIGNPMVMNPEG, -0.295 ± 0.63.
In turn, GKQYPFHFI gave an amyloid nucleation score of -0.583 ± 1.1.
Then VLYFLLLFFRD, with “inactive”; and SCSRWHYESSYLYIDTLEDY, with 0.347 ± 0.55; and PAITFSSYQSIANYWRGPRM, with 7.899 ± 0.026.
Then YSKTLERVDSSVD, with 1.26 ± 0.38; and TCDWVVLIYPSSGCCRLEWR, with 0.99 ± 0.36.
With LRMYCRVTWSISYVSSSPVL, the amyloid nucleation score stood at 2.83 ± 0.087.
For the substance SYLVLIHKALSFGRTISDHP, the amyloid nucleation score was -0.467 ± 0.29.
The substance KIHQRRVTSTANRCTILAAN yielded an amyloid nucleation score of -0.572 ± 0.76.
For LRFNDFA the value was “inactive”; for FARGNINLMVVFVFFDS, 5.766 ± 0.049; for TTIFGNSATLDGIPHIIKRP, -0.268 ± 0.79.
In turn, TTSRLRWKRSHHKW showed an amyloid nucleation score of 1.4 ± 0.29.
For FWIDTYGGTNFKGCICIITG the value was 4.39 ± 0.11; for LVCSKSAGEWAYSRFGVLDL, -0.444 ± 0.44.
For VVENRALLYGGFVR the value was 0.135 ± 0.63; for RTYGYRDIQVQYRFCFCRGD, 8.589 ± 0.057.
For WLYNMTRLHIPFYARNWLNS the value was 0.352 ± 0.37.
Regarding LWNVD, the amyloid nucleation score stood at 2.94 ± 0.19.
NLTVCMLDSPGYQKDCGMRL: the amyloid nucleation score was 1.54 ± 0.27.
Then CWGNGGQKRLFVLFSFAY, with 0.063 ± 1.1; and MRHRCGHKKVSGV, with 1.27 ± 0.49.
For FKAILGG the value was “inactive”; for LTSNTNSRMLRCSIMVQQS, -0.087 ± 0.45; for YVPPIGGNRHAHLVASCLGS, 0.434 ± 0.21.
For SYDVLCILRS, the amyloid nucleation score was -0.547 ± 0.76.
Then CFDEFTLCKVLWNMFSTFLG, with -0.707 ± 1.1; and VKGGSRS, with -0.186 ± 0.49.
Then KCLSRNPHSIDFMRNARYKD, with -0.92 ± 0.33.
HFSDIRAFCFPCNPIMRVMK came in with an amyloid nucleation score of -0.406 ± 0.56.
For AFSMCSDRWIWLSCLNVEFV the value was 9.677 ± 0.048; for SYKGALLSEQIL, 0.114 ± 0.4.
Then TLKVCSVLIYLYWN, with -1.34 ± 0.75.
As for LLLVHL, the amyloid nucleation score worked out at 1.08 ± 0.68.
Then GSSTSGVCTGVRERAVDCGV, with 0.007 ± 0.76.
For LLVML the value was 0.851 ± 0.46; for RSDVFIGTSIFGALSCV, -0.025 ± 0.45; for YCYEPLTC, 0.508 ± 0.49.
For TVHDYFDVQECVIDQCKGLP the value was 0.654 ± 0.57.
GWSITGSWFHNMAILLICFR: the amyloid nucleation score worked out at 3.38 ± 0.075.
For YNVMHRPGGWDFMYGNWMLG the value was 4.63 ± 0.063; for SRTRCDIWFNLRTFMVRVRK, -0.46 ± 1.1.
ACFHGFPIYGCLLANAMCGR returned an amyloid nucleation score of 1.33 ± 0.67.
Substance DIWMAINVGAYGVCEFCVSR yielded an amyloid nucleation score of 5.88 ± 0.071.
For LKQLKISRRADNYVTQCNLV the value was 2.91 ± 0.11.
For RNIGAR the value was 0.635 ± 0.16; for NLLLVFSILNSGRMTLNDNK, 5.48 ± 0.094.
For MVVRDL the value was -0.536 ± 1; for KFHHGFLGELPAPEYSSESA, 0.25 ± 0.42; for VDNSLVNMLTAMGWSGFMHT, 0.255 ± 0.49.
In the case of LGCYTYLQEVRMGEDTARGG, the amyloid nucleation score turned out to be 0.386 ± 0.39.
As for RYFRATPKVCRLH, the amyloid nucleation score was found to be 0.175 ± 0.26.
In turn, SETYTLIRARYIMV came in with an amyloid nucleation score of -1.24 ± 0.75.
For VMTIVIFGLYNY the value was 2.35 ± 0.18; for IIEIRAASGPVGFSDINMF, -0.459 ± 1.1.
For NRECCTSDLRIMNVLRPL the value was -0.028 ± 0.18; for STGMRGKYVTFFCSSVIFRQ, 7.2 ± 0.06; for QVVDGWWGNYFIV, -1.92 ± 0.78.
For INGQDKHRHWSFTLFYKKRY the value was -0.145 ± 1.1; for LYVSFDYGAQRVHYSTAYVK, -0.013 ± 0.48.
For IIAPSSEL, the amyloid nucleation score is -0.479 ± 0.63.
Consider GVNKVT, for which the amyloid nucleation score was found to be 0.115 ± 1.
For VDFCVDVLFC the value was -1.06 ± 1.1; for PPDSTWYC, 0.452 ± 0.53; for YLSTGNNMFLNVQDSQGA, 1.36 ± 0.13.
For MCFSPCCRWPRIRQEDQG the value was 0.531 ± 0.64; for GVAGFDTSDNETG, 0.543 ± 0.33; for RCEAAMWMLASYRVCVTLSC, -0.525 ± 1.1.
For LMLFDVKGRICGFDLCLIRR the value was 0.381 ± 0.62; for HVAFKLKVIVRIVSLTSGER, 2.94 ± 0.075; for ILMCETLWNWLKWIPKFNSC, -0.403 ± 0.5.
On to GLTASL, for which the amyloid nucleation score is -0.375 ± 0.49.
For DGIRVLCLTALPFMWVH the value was “inactive”; for YQVFSQLEMRTYCKGKDFTL, 4.724 ± 0.038.
For AHTRSAMGDMPNVNGFLKCT, the amyloid nucleation score result was “inactive”.
On to AQWCEGVVSLQLSWVVCVEG, for which the amyloid nucleation score came out at 1.16 ± 0.34.
For KSDPAVIPY the value was 0.713 ± 0.45; for FWLSTWSFNVVYPDGEAQKS, -0.303 ± 0.48.
Then EWRKPGFVRGLRLNCVLRYF, with -1.51 ± 0.78; and LLHSWSYRCV, with 0.039 ± 0.77.
For RVDYSMREFCLSSRAREDTV the value was -0.353 ± 0.42.
In the case of SNVRWKRGYGDNTILGGSLT, the amyloid nucleation score was 1.51 ± 0.31.
Then IFSTPKTLDPVFYCL, with “inactive”.
For AVWCDFHSERAMCVVGM the value was 5.249 ± 0.043.
Then WIVVSSIDSFFCVSSSPQFR, with “inactive”; and WFDWLVYSGLDHGRFIEVLK, with -0.432 ± 0.74; and FEAFLSMWIFAPECLRAHSV, with -0.288 ± 1.1.
In the case of SRIGLYIKCVVLDWRELNLS, the amyloid nucleation score is 0.206 ± 0.55.
CQSAASVL had an amyloid nucleation score of -0.148 ± 0.31.
IVSIT had an amyloid nucleation score of -0.271 ± 0.24.
Turning to IFFVRACSKAGFVQPLSIFY, the amyloid nucleation score was -0.113 ± 0.65.
Then YCKGSS, with -0.46 ± 1; and FSSSWKGRFVNNSRVVGKSR, with -0.367 ± 0.43; and GCISVNCHSLLRTHAFRG, with 1.28 ± 0.1.
Then VRCSVCVGACEHGPVN, with 1.27 ± 0.61.
As for CMVIRSW, the amyloid nucleation score was -0.064 ± 0.34.
In turn, YLVELNV returned an amyloid nucleation score of 0.344 ± 0.56.
LCWLIVGKCGKGKTYDGFIG registered an amyloid nucleation score of -0.78 ± 1.1.
Then FSVCHVQDCSSAGRMYYLRL, with 3.98 ± 0.055; and LLCYRWGHVN, with 0.057 ± 0.76.
For RRYMVMSDWLDKPWWGYFGV, the amyloid nucleation score is -0.855 ± 0.24.
YWKPCLVAVGWSTQLRCCPV yielded an amyloid nucleation score of -0.324 ± 0.3.
For RIVMKRRFYCKSWSLIVHPG the value was -0.826 ± 0.28; for MLSDSLLDCRVLLMVFGRET, 3.81 ± 0.051; for CMLASSFMVVRSRLLSSRAM, 1.14 ± 0.32.
For QYSTSV the value was -0.548 ± 0.61; for NLDEQGFAVSWETVLLWSEE, -0.005 ± 0.5.
LDALGLDTFNMQLV: the amyloid nucleation score worked out at 0.236 ± 0.28.
Then RSWKLGVDGWPLMSEFP, with 1.64 ± 0.29; and VLIFMIKVWARITLMGYSRL, with -0.666 ± 0.3; and YIGQVGYRCSAVGQSYSRPG, with 1.87 ± 0.47.
Substance YYIMCFSSGCDPLPQHCGWE registered an amyloid nucleation score of -0.821 ± 1.1.
Then VTRDFSRGIGDWLICGDILE, with -1.81 ± 0.49; and ETRVITGDVSDRF, with 2.55 ± 0.091.
Substance VVLQTKHSLAISGQQLIPMA displayed an amyloid nucleation score of 0.32 ± 0.32.
For SILGVCSRLSYVRSVTFQGV the value was 0.998 ± 0.61.
For SSMIMTGFLYTYYGVIRVVD the value was “inactive”.
In turn, MSGFKGVITSTFIANSLLPM yielded an amyloid nucleation score of -1.17 ± 0.48.
Then CRVLGQRRGASTNVSVHIVE, with -0.097 ± 1.1; and PKNLILLSHFYSEAVCPGAR, with -0.927 ± 1.1.
On to VLLRDNGLELFAP, for which the amyloid nucleation score turned out to be 0.779 ± 0.3.
For SGTRYYPSWIFGFLVVCKG the value was -0.404 ± 0.64; for TIFGRENYEDVKSASEVGLS, 0.135 ± 0.79; for HRTKRGRHFIFRTCKQYYPG, 2.81 ± 0.071.
For SSLVGFERGRSMGRGMWVDL the value was 0.041 ± 0.63; for LSNLWSSSF, “inactive”; for SLATSAWVVYLWFVVRDIVV, 0.388 ± 0.33.
In turn, AKWRDRSETYYLYFRISVRI registered an amyloid nucleation score of -0.493 ± 1.1.
As to NRIGLCRGLNQFFLPGMWSR, the amyloid nucleation score was determined as 0.283 ± 0.26.
As to CRQISGNTNVRLGASSMRII, the amyloid nucleation score is -0.526 ± 0.55.
In the case of RYGVRTSAPNMQWLFAGWS, the amyloid nucleation score stood at 0.613 ± 0.74.
For the substance FCYQMSEVWIWCKFIFSI, the amyloid nucleation score was -1 ± 1.1.
As for RNPNVEVCRKQFRVGCSLAN, the amyloid nucleation score is -0.931 ± 0.39.
